Results from patent publication US20190093159.

Assays:
wt nucleosomes = wt nucleosomes (UniProt P62805)
[1] = test system: H3Kac5-containing nucleosomes (H3 K9/14/18/23/27ac)
nucleosomes with H4K12ac = nucleosomes with H4K12ac (UniProt P62805)
[2] = molecular target: H4Kac5-containing nucleosomes (H4 K5/8/12/16/20ac) (UniProt P62805)

How did the “pulldown with α-H3K18ac antibody (% input), with AcCoA” value (wt nucleosomes) turn out when recombinant full-length human p300 was run?
The value was “an increase in pulldown from 0.3% to about 4% input”.

What about the “pulldown with α-H3K18ac antibody (% input), without AcCoA” value (wt nucleosomes) of the same substance?
The value was “an increase in pulldown from 0.3% to about 4% input”.

And the “pulldown with α-H4K5ac antibody (% input), with AcCoA” value (wt nucleosomes)?
Its value is 0.5 to 0.9% input.

What about the “pulldown with α-H4K5ac antibody (% input), without AcCoA” value (wt nucleosomes) of the same substance?
The value was 0.5 to 0.9% input.

And the “H4 acetylation (α-H4K5ac pulldown) compared to wt” value [1]?
Its value is 6-fold increase compared to wt.

And the “H3 acetylation (α-H3K18ac pulldown)” value (nucleosomes with H4K12ac)?
The value was “This effect was dependent on the exact position of the mark within the tail and was most pronounced for H4K12ac”.

And the “pulldown efficiency with α-H4K5ac antibody (% input)” value (nucleosomes with H4K12ac)?
Its value is 4.4% input.

What about the “H3 acetylation (α-H3K18ac pulldown) compared to wt” value [2] of the same substance?
The value was 13-fold compared to wt.
